Data published in patent publication US20140037642A1 (Amgen, published 2014).
Residue numbers refer to the chain shown, from its start.

B1: L12H12 phage-displayed Fab (Fab, V domains shown)
VH: EVQLVESGGGLVQPGGSLRLSCAASGFTFSSYAMSWVRQAPGKGLEWVSAISGSGGSTYYADSVKGRFTISRDNSKNTLYLQMNSLSADDTAVYFCASGGWYGDYFDYWGQGTLVTVSS
VL: NFMLTQPHSVSESPGKTVTISCTRSSGSIASNYVQWYQQRPGSSPTTVIYEDNQRPSGVPDRFSGSIDSSSNSASLTISGLKTEDEADYYCQSYDSSNQRVFGGGTKLTVL
B2: L52H52 phage-displayed Fab (Fab, V domains shown)
VH: EVQLVESGPGLVKPSGTLSLTCAVSGGSISSSNWWSWVRQPPGKGLEWIGEIYHSGSTNYNPSLKSRVTISVDKSKNQFSLKLSSVTAADTAVYYCAREKSGMDVWGQGTTVTVSS
VL: EIVMTQSPLSLPVTPGEPASISCRSSQSLLHTNGYDYLDWYLQKPGQSPQLLIYLGSTRASGVPDRFSGSGSGTDFTLKISRVEAEDVGVYYCMQAFQTPLTFGGGTKMEIK
B3: L26H26 phage-displayed Fab (Fab, V domains shown)
VH: QVQLQESGPGLVKPSGTLSLTCAVSGGSISSSNWWSWVRQPPGKGLEWIGEIYHSGSTNYNPSLKSRVTISVDKSKNQFSLKLSSVTAADTAVYYCARYSYGTVGIDYWGQGTLVTVSS
VL: B2 VL with E1D, I2V, T32S, D36T, T58N, A85P, F97L, Q98E, T99M, M109V
B4: L13H13 phage-displayed Fab (Fab, V domains shown)
VH: QVQLQESGPGLVKPSETLSLTCTVSGGSISSSNWWSWVRQPPGKGLEWIGEIYHSGSTNYNPSLKSRVTISVDKSKNQFSLKLSSVTAADTAVYYCAREGNRTVTSAFDIWGQGTMVTVSS
VL: not shown
B5: L5H5 phage-displayed Fab (Fab, V domains shown)
VH: QLQLQESGPGLVKPSQTLSLTCTVSGGSISSSNWWSWVRQPPGKGLEWIGEIYHSGSTNYNPSLKSRVTISVDKSKNQFSLKLSSVTAADTAVYYCARYSSSRNDAFDIWGQGTMVTVSS
VL: not shown
B6: L4H4 phage-displayed Fab (Fab, V domains shown)
VH: QVQLQQWGAGLLKPSETLSLTCAVSGGSFSGYYWSWIRQPPGKGLEWIGEINHSGSTNYNRSLKSRVTISVDTSKNQFSLKLSSVTAADTAVYYCARLSYGSGVDYWGQGTLVTVSS
VL: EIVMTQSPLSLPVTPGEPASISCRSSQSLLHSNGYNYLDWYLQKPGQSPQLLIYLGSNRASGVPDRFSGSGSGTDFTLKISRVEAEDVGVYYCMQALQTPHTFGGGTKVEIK
B7: L11H11 phage-displayed Fab (Fab, V domains shown)
VH: QLQLQESGPGLVKPSGTLSLTCAVSGGSISSSNWWSWVRQPPGKGLEWIGEIYHSGSTNYNPSLKSRVTISVDKSKNQSSLKLSSVTAADTAVYYCARANRDDAFDIWGQGTMVTVSS
VL: EIVLTQSPLSLPVTPGEPASISCRSSQSLLHSNGYNYLNWYLQKPGQSPQLLIYLGSNRASGVPDRFSASGSGTDFTLKISRVEAEDVGVYYCMQALQTPITFGQGTRLEIK
B8: L51H51 phage-displayed Fab (Fab, V domains shown)
VH: QVQLVQSGAEVKKPGSSVKVSCKASGGTFSSYAISWVRQAPGQGLEWMGIINPSGGSTSYAQKFQGRVTITRDTSASTAYMELSSLRSEDTAVYYCARDRWRYDAFDIWGQGTMVTVSS
VL: NFMLTQPHSVSESPGKTVTISCTGSGGNIASNYVQWYQQRPGRAPTTVIYEDNRRPSGVPDRFSGSIDSSSNSASLTISGLKTEDEADYYCQSYDPYNRVFGGGTKLTVL
B9: L8H8 phage-displayed Fab (Fab, V domains shown)
VH: QVQLQQWGPGLVKPSGTLSLTCAVSGGSISSSNWWSWVRQPPGKGLEWIGEIYHSGSTNYNPSLESRVTISVDKSKNQFSLKLSSVTAADTAVYYCARDRYYGMDVWGQGTTVTVSS
VL: not shown
B10: L9H9 phage-displayed Fab (Fab, V domains shown)
VH: EVQLVESGPGLVKPSGTLSLTCAVSGGSISSSNWWSWVRQPPGKGLEWIGYIYYSGSTYYNPSLKSRVTMSVDTSKNQFSLKLSSVTAADTAVYYCARWSYLDAFDIWGQGTMVTVSS
VL: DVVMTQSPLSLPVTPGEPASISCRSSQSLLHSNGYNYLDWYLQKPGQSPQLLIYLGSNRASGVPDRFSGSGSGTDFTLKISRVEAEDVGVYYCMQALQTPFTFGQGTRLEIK
B11: L16H16 phage-displayed Fab (Fab, V domains shown)
VH: B3 VH with Y99W, S100T, Y101G, G102R, V104D, G105A, I106F, Y108I, L114M
VL: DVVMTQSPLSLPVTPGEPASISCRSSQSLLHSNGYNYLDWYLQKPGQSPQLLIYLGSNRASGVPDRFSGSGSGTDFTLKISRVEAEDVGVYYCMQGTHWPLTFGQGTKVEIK

Key:
hu INSR(ECD)-muIgG1Fc = target: T1, hu INSR(ECD)-muIgG1Fc (human; mouse, Glycosylated. 87% of the preparation was cleaved between the alpha and beta chains (RKRR site), which stay disulfide-linked. Dimer through the receptor and the murine Fc.); test: phage Fab ELISA, plate coated with INSR-mFc at 5 µg/ml
T1 construct: 87% processed into α and β chains; also called INSR(ECD)-muFc; INSR-mFc
Experimental: (§1) In 96-well 2-ml deep-well blocks, 480 μl/well 2xYT-CG broth was inoculated with 20 μl of overnight cultures of the individual clones, then incubated at 37° C., 300 rpm for 3 hours. To each well, 50 μl of 1:3 diluted M13KO7 helper phage were added to infect the cells. The block was incubated at 37° C. without shaking for 30 minutes, and then shaken gently for another 30 minutes at 150 rpm. The block was centrifuged at 3600 rpm for 20 minutes to pellet the infected cells. The cell pellet in each well was suspended into 480 μl of 2xYT-CK (2xYT broth containing 100 μg/ml carbenicillin and 40 μg/ml kanamycin), and incubated at 30° C. overnight for about 20 hours. The cell debris was separated by centrifugation at 3600 rpm for 20 minutes. The rescued phage supernatant was used in the phage ELISA to check for IGF-1R-specific, INSR-cross reactive, or mouse Fc binding of individual clones.
(§2) The coated plates were washed 3× with 300 μl/well of PBS. The washed plates were blocked with 300 μl/well 2% MPBS at room temperature for one hour. Meanwhile, rescued phages of individual clones were pre-blocked by mixing 170 μl of rescued phage with 170 μl of 4% MPBS. The blocked plates were washed 5× with 300 μl/well TBST (TBS: 10 mM Tris-HCl, pH 7.5, 1 mM EDTA, 150 mM NaCl; Tween-20. 0.1%). 100 μl/well of pre-blocked phage dilutions were distributed to each set of coated plate, which were incubated at room temperature on a rocker for 90 minutes. The plates were washed 5× with 300 μl/well TBST. 100 μl/well of anti-M13-HRP in 2% MPBS (1:3000 dilution, catalog number 27-9421-01, Amersham Pharmacia Biotech) were distributed, and plates were incubated at room temperature on rocker for one hour. The plates were washed 5× with 300 μl/well TBST. 100 μl/well of the substrate 1-Step™ ABTS (Pierce Biotechnology, Rockford, Ill., catalog number 37615) were added. Plates were incubated for one hour. OD₄₀₅ was measured for signal detection.

[1] = target: T2, hu IGF-1R(ECD)-C3-muIgG1Fc (human; mouse, Glycosylated. 60% of the preparation was cleaved between the alpha and beta chains (RKRR, mature positions 708-711), which stay disulfide-linked; 40% was unprocessed. Dimer through the …); test: phage Fab ELISA, plate coated with IGF-1R-C3-mFc at 5 µg/ml
T2 construct: 60% of the product was processed into α and β chains, 40% unprocessed; also called IGF-1R(ECD)-C3-muFc; IGF-1R-C3-muFc
Experimental: as §1, §2

Row | Binder | binding result (hu INSR(ECD)-muIgG1Fc) | binding result [1]
1 | B1 | no binding | binds
2 | B2 | no binding | binds
3 | B3 | no binding | binds
4 | B4 | no binding | binds
5 | B5 | no binding | binds
6 | B6 | no binding | binds
7 | B7 | no binding | binds
8 | B8 | no binding | binds
9 | B9 | no binding | binds
10 | B10 | no binding | binds
11 | B11 | no binding | binds
